One test addresses His-T7-hnRNP C1 ΔACIDIC (UniProt P07910). The experiment in a line: SEC.
The next test addresses His-T7-hnRNP C1 ΔRRM (UniProt P07910). The experiment in a line: SEC.

“His-T7-hnRNP C1 ΔACIDIC (from UniProt P07910-2 1-293) (natural protein)” returned a stoichiometry N with His-T7-hnRNP C1 ΔACIDIC of 2.
In the test with His-T7-hnRNP C1 ΔRRM, “His-T7-hnRNP C1 ΔRRM (from UniProt P07910-2 1-293) (natural protein)” gave a stoichiometry N of 4.

(Values after PMC9943658.)
